Experimental data taken from US20180155451A1 (published 2018).

B1: GpH7-A5/GpH7-B3 variant P271_20W/GpL16-k0 (antibody, human IgG1, kappa)
heavy 1: not shown
heavy 2: not shown
light: DIVMTQSPLSLPVTPGEPASISCQASESLVHSNRNTYLHWYLQKPGQSPQLLIYKVSNRFSGVPDRFSGSGSGTDFTLKISRVEAEDVGVYYCSQNTHVPPTFGQGTKVEIERTVAAPSVFIFPPSDEQLKSGTASVVCLLNNFYPREAKVQWKVDNALQSGNSQESVTEQDSKDSTYSLSSTLTLSKADYEKHKVYACEVTHQGLSSPVTKSFNRGEC
notes: He Ab: the mutation stands only in the GpH7-B3-derived H chain; also called He Ab P271W
B2: GpH7-A5/GpH7-B3 variant V266_01G/GpL16-k0 (antibody, human IgG1, kappa)
heavy 1: not shown
heavy 2: not shown
light: B1 light
notes: Heterodimerized IgG1 (He Ab); mutation only in the GpH7-B3 chain; also called He Ab V266G
B3: GpH7-A5/GpH7-B3 variant S239_01G/GpL16-k0 (antibody, human IgG1, kappa)
heavy 1: not shown
heavy 2: not shown
light: B1 light
notes: Heterodimerized anti-glypican-3 IgG1; the substitution stands in the GpH7-B3 chain only; also called He Ab
B4: GpH7-A5/GpH7-B3 variant V266_13S/GpL16-k0 (antibody, human IgG1, kappa)
heavy 1: not shown
heavy 2: not shown
light: B1 light
notes: Heterodimerized IgG1 (He Ab); mutation only in the GpH7-B3 chain; also called He Ab V266S
B5: GpH7-A5/GpH7-B3 variant Q295_02A/GpL16-k0 (antibody, human IgG1, kappa)
heavy 1: not shown
heavy 2: not shown
light: B1 light
notes: He Ab: the mutation stands only in the GpH7-B3-derived H chain; also called He Ab Q295A
B6: GpH7-A5/GpH7-B3 variant S239_18N/GpL16-k0 (antibody, human IgG1, kappa)
heavy 1: not shown
heavy 2: not shown
light: B1 light
notes: Heterodimerized IgG1 (He Ab); mutation only in the GpH7-B3 chain; also called He Ab S239N
B7: GpH7-A5/GpH7-B3 variant D265_01G/GpL16-k0 (antibody, human IgG1, kappa)
heavy 1: not shown
heavy 2: not shown
light: B1 light
notes: as for B3
B8: GpH7-A5/GpH7-B3 variant V266_07I/GpL16-k0 (antibody, human IgG1, kappa)
heavy 1: not shown
heavy 2: not shown
light: B1 light
notes: Heterodimerized IgG1 (He Ab); mutation only in the GpH7-B3 chain; also called He Ab V266I
B9: GpH7-A5/GpH7-B3 variant P238_16H/GpL16-k0 (antibody, human IgG1, kappa)
heavy 1: not shown
heavy 2: not shown
light: B1 light
notes: as for B3
B10: GpH7-A5/GpH7-B3 variant V266_08L/GpL16-k0 (antibody, human IgG1, kappa)
heavy 1: not shown
heavy 2: not shown
light: B1 light
notes: Heterodimerized IgG1 (He Ab); mutation only in the GpH7-B3 chain; also called He Ab V266L
B11: GpH7-A5/GpH7-B3 variant Q295_01G/GpL16-k0 (antibody, human IgG1, kappa)
heavy 1: not shown
heavy 2: not shown
light: B1 light
notes: He Ab: the mutation stands only in the GpH7-B3-derived H chain; also called He Ab Q295G
B12: GpH7-A5/GpH7-B3 variant S239_08L/GpL16-k0 (antibody, human IgG1, kappa)
heavy 1: not shown
heavy 2: not shown
light: B1 light
notes: Heterodimerized IgG1 (He Ab); mutation only in the GpH7-B3 chain; also called He Ab S239L
B13: GpH7-A5/GpH7-B3 variant V266_04F/GpL16-k0 (antibody, human IgG1, kappa)
heavy 1: not shown
heavy 2: not shown
light: B1 light
notes: Heterodimerized IgG1 (He Ab); mutation only in the GpH7-B3 chain; also called He Ab V266F
B14: GpH7-A5/GpH7-B3 variant P238_19Q/GpL16-k0 (antibody, human IgG1, kappa)
heavy 1: not shown
heavy 2: not shown
light: B1 light
notes: as for B3

Legend:
[1] = target: T1, FcγRIIIa extracellular domain with C-terminal His tag (human, UniProt P08637 17-208); experiment: ratio of He/Con_3a to He/Con_2b (FcγRIIIa over FcγRIIb), SPR relative binding
T1 construct: extracellular domain; also called FcgRIIIa; 3a; not shown: His tag at the C terminus
Description: (§1) The heterodimerized antibodies He Abs in which one of the H chains was introduced with an alteration were assayed for their binding activities to each activating FcγR and inhibitory FcγR according to the method described in Example 4. […] The activating FcγRs in FIGS. 26, 27, 28, and 29 are FcγRIa, FcγRIIa (R), FcγRIIa (H), and FcγRIIIa, respectively.
(§2) Analysis of interaction between objective antibody and the FcγR was carried out using Biacore T100 (GE Healthcare). HBS-EP+ (GE Healthcare) was used as the running buffer, and the measurement temperature was set to 25° C. Chips produced by immobilizing the antigen peptide by the amine coupling method to a Series S Sencor Chip CM5 (GE Healthcare), or alternatively, chips produced by allowing preliminarily biotinylated antigen peptides to interact with and immobilize onto a Series S Sensor Chip SA (certified) (GE Healthcare) were used. Antibodies of interest were captured onto an antigen peptide-immobilized chip, and allowed to interact to each FcγR diluted with running buffer. To regenerate and repeatedly use the chip, the antibodies captured on the chip were washed off by reacting 10 mM glycine-HCl, pH 1.5.

[2] = target: T2, FcγRIIb extracellular domain with C-terminal His tag (human, UniProt P31994 43-217); experiment: SPR (Biacore), antibody captured via antigen peptide, FcγR as analyte; binding relative to GpH7-A5/GpH7-B3/GpL16-k0 = 100
T2 construct: extracellular domain; also called FcgRIIb; 2b; not shown: His tag at the C terminus
T2 sequence (looked up): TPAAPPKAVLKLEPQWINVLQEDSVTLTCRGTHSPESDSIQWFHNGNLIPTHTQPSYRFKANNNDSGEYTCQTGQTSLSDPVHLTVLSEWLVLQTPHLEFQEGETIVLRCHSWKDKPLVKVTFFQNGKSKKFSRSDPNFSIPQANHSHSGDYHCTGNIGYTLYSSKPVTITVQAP

[3] = target: T1, FcγRIIIa extracellular domain with …; experiment: as above
[4] = target: T3, FcγRIIa H (FcγRIIa type H, His at position 131), extracellular domain with C-terminal His tag (human, UniProt P12318 34-217); experiment: ratio of He/Con_2aH (FcγRIIa H) to He/Con_2b (FcγRIIb), SPR relative binding
T3 construct: extracellular domain; also called 2aH; FcgRIIa H; not shown: His tag at the C terminus
T3 sequence (looked up): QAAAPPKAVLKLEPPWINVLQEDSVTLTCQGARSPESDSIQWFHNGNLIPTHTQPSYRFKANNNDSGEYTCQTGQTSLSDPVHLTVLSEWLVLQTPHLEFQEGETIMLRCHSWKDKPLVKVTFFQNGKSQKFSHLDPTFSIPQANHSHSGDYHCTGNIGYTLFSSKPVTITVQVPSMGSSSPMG
Description: as §1, §2

[5] = target: T3, FcγRIIa H (FcγRIIa type H, His at …); experiment: SPR (Biacore), antibody captured on antigen-peptide chip, FcγR as analyte; GpH7-A5/GpH7-B3/GpL16-k0 = 100
Description: as §1, §2

[6] = target: T4, FcγRIIb, extracellular domain with C-terminal His tag (human, UniProt P31994 43-217); experiment: as above
T4 construct: extracellular domain; also called 2b; FcgRIIb; not shown: His tag at the C terminus
T4 sequence (looked up): T2 sequence (looked up)
Description: as §1, §2

[7] = target: T5, FcγRIIIa extracellular domain with C-terminal His tag (human, UniProt P08637 17-208); experiment: SPR; He/Con_3a divided by He/Con_2b (binding to FcγRIIb is the reference)
T5 construct: extracellular domain; also called FcgRIIIa; 3a; not shown: His tag at the C terminus
Description: as §2
(§3) The FcγR-binding activity of each antibody was assessed primarily using as an indicator the FcγR-binding activity and dissociation constant for FcγR.

[8] = target: T5, FcγRIIIa extracellular domain with …; experiment: SPR (Biacore), antibody captured on antigen peptide chip, FcγR as analyte; relative binding amount
Description: as §2, §3

[9] = target: T6, FcγRIIb extracellular domain with C-terminal His tag (human, UniProt P31994 43-217); experiment: as above
T6 construct: extracellular domain; also called FcgRIIb; 2b; not shown: His tag at the C terminus
T6 sequence (looked up): T2 sequence (looked up)
Description: as §2, §3

Binder	He_2aH/2b (IIaH/IIb ratio) [4]	He/Con_2aH (relative binding activity) [5]	He/Con_2b (relative binding activity) [6]	also measured
B1	–	–	–	IIIa/IIb (He_3a/2b) [1]: 1.28; He/Con_2b [2]: 58.1 relative (control = 100); He/Con_3a [3]: 74.1 relative (control = 100)
B2	0.71	36.7 % of control	51.5 % of control	–
B3	–	–	–	He_3a/2b (IIIa/IIb) [7]: 0.53 ratio; He/Con_3a [8]: 76.2 % of GpH7-A5/GpH7-B3/GpL16-k0 (=100); He/Con_2b [9]: 144 % of GpH7-A5/GpH7-B3/GpL16-k0 (=100)
B4	0.5	27 % of control	54.4 % of control	–
B5	–	–	–	IIIa/IIb (He_3a/2b) [1]: 1.32; He/Con_2b [2]: 79.7 relative (control = 100); He/Con_3a [3]: 106 relative (control = 100)
B6	0.79	94.2 % of control	119 % of control	–
B7	–	–	–	He_3a/2b (IIIa/IIb) [7]: 0.28 ratio; He/Con_3a [8]: 4.5 % of GpH7-A5/GpH7-B3/GpL16-k0 (=100); He/Con_2b [9]: 16.1 % of GpH7-A5/GpH7-B3/GpL16-k0 (=100)
B8	0.69	106 % of control	152 % of control	–
B9	–	–	–	He_3a/2b (IIIa/IIb) [7]: 0.27 ratio; He/Con_3a [8]: 30.7 % of GpH7-A5/GpH7-B3/GpL16-k0 (=100); He/Con_2b [9]: 115 % of GpH7-A5/GpH7-B3/GpL16-k0 (=100)
B10	0.44	104 % of control	236 % of control	–
B11	–	–	–	IIIa/IIb (He_3a/2b) [1]: 1.59; He/Con_2b [2]: 46 relative (control = 100); He/Con_3a [3]: 73 relative (control = 100)
B12	0.75	105 % of control	140 % of control	–
B13	0.44	25.3 % of control	57.6 % of control	–
B14	–	–	–	He_3a/2b (IIIa/IIb) [7]: 0.51 ratio; He/Con_3a [8]: 55.8 % of GpH7-A5/GpH7-B3/GpL16-k0 (=100); He/Con_2b [9]: 110 % of GpH7-A5/GpH7-B3/GpL16-k0 (=100)
